Source: the DeepSol protein solubility set

Assay: soluble on expression in E. coli; label from the status in PepcDB or PDB records

For “MFFLQMSGFPGSGKSTVSKYIAKLTGAVIIDHDVLKSALLKSLKVKGIESTIVGGLAYDAEWVLIDSYLEQGHSVILDSPCLYEGMVEKGIELSNKHGVKYKYIECYLNDMEEINRRLQTRKRMISQIEKVESEVGFKKWLNGSKRPSNNEYLIVDSSKPIEQYVEKMMDYMTK”, which “soluble on expression in E. coli” value is on record?
The value was “not soluble”.

With “MSFLKCGVCTEDYSNVITNRHPKNLTCGHSICKACSSKLVSNFKILCPFCRKTTELRENENLQTNFALLEAISLFNDINESVTEPRSSGAPPNCEEHTYNLAEFVCISPNCSSRSKLMCRTCEEFGVHAGHRKGLLQVEAKKVRQNLLERQRKLQVNKKQVDDKIQALEKAALKKNDELYKEKYDEITRHYDRIRSSVAEREKTSKEVLKKSVLTSEEDNRMGQISNHVIRHLLEKKCEEVEQLVGMTDFELYRVKDKVDWNDESFSFSDVKEKPPMELKTLHVKLPEFRFEDSS” as the sequence, how does the “soluble on expression in E. coli” value read?
The value was “not soluble”.

Which “soluble on expression in E. coli” value does the source give for “MASMPSRTALSPGVLSPTRPVPNWIARPEYVGKPAAQEGSEPWVQTPEVIEKMRVAGRIAAGALAEAGKAVAPGVTTDELDRIAHEYLVDNGAYPSTLGYKGFPKSCCTSLNEVICHGIPDSTVITDGDIVNIDVTAYIGGVHGDTNATFPAGDVADEHRLLVDRTREATMRAINTVKPGRALSVIGRVIESYANRFGYNVVRDFTGHGIGTTFHNGLVVLHYDQPAVETIMQPGMTFTIEPMINLGALDYEIWDDGWTVVTKDRKWTAQFEHTLLVTDTGVEILTCL” here?
Its value is “soluble”.

For “MKKFFRFQLCCICLLVLIVSACKVKRPDSVISESEMENLLYDYHIAKAMGENMPGGENYKKALYVEAVFKKYGTTEEVFDSSMVWYTRNTKILSEIYEKVNKRLKAQQNAINHLIALRDNKPKMSAPGDSINVWAWQRIAQLTEAPLNNKFTFTLPSDTNFKKRDVLLWKMQYNFLSEIPDSTMAPIMAMQIVYENDTVTHSCVKHIFKSGIQNIRLQSDTMNIKEIKGFIFCPLSEESITLLVSDISLTRYHANDSITQISKDSLKTDSIKEKSKNDSIQKKTPKDTIQASSSHQRTNPNDLNRPNNDVRPIKPEQREKEMQIEKEKQQLERQQRTNPRRPLRRQNN”, which “soluble on expression in E. coli” value is on record?
Its value is “not soluble”.

With “GSARPSSSMADFRKFFAKAKHIVIISGAGVSAESGVPTFRGAGGYWRKWQAQDLATPLAFAHNPSRVWEFYHYRREVMGSKEPNAGHRAIAECETRLGKQGRRVVVITQNIDELHRKAGTKNLLEIHGSLFKTRCTSCGVVAENYKSPICPALSGKGAPEPGTQDASIPVEKLPRCEEAGCGGLLRPHVVWFGENLDPAILEEVDRELAHCDLCLVVGTSSVVYPAAMFAPQVAARGVPVAEFNTETTPATNRFRFHFQGPCGTTLPEALA” as the sequence, how does the “soluble on expression in E. coli” value read?
The value was “soluble”.

For “MGSDKIHHHHHHMPKILKFNEEARRALERGVDKVANAVKVTLGPKGRNVVIEKSWGSPTITNDGVSIAKEIELEDKFENLGAQLVKEVASKTNDVAGDGTTTATVLAQAMIKEGLKNVAAGANPILLKRGIDKAVEKAVEEIKKVSKKLSGREDIAHVAAISANSAEIGELIAEAMDKVGEDGVITVEDSKTLETYVEFTEGMQFDRGYISPYFVTDAEKMEVVLKEPFILITDRKLSAVKPLIPILEKVAQTGKPLLVIAEDVEGEVLTTLVLNKLKGTLQSCAVKAPGFGERRKAMLQDIAILTGGQVASEELGINLEDLTLEDLGRADLVRVKKDETIIIGGKGDPEAIKKRIAQIKAQIEETTSEYEKETLQERMAKLAGGVAVIKVGAATETELKEKKHRIEDALSATRAAVEEGIVPGGGVTLLRARKAVEKVIEELEGDEKIGAQIVYKALSAPIKQIAENAGYDGAVIIEKILSNDDPAYGFDALRGEYCNMFERGIIDPAKVTRSALQNAASIAGMLLTTEVLIVEKPEEKKETPSMPEEF”, which “soluble on expression in E. coli” value is on record?
Its value is “not soluble”.

For “MSLKDSEVTVLGAGVAGLAVARALALRGAEVTVLEQAEAIREVGAGLQISPNGAAVLRALGLGDALEAASMRAQAVELRNGVGGDLVLKLDLARLRPGQGYHLMHRADLIDLLAQGAREAGVQIRLLQKIEAVDLGGPRPRLVTAQGAEYAPNLLIGADGLHSLVRAELNGPAQPFFTNQVAWRTVIPATPGEPVVAEVHMGEGRHLVSYPMRGGTVRNIVAVEERKRWVQEGWNLRDDPVDLRLAFAGFNGRVRHWLEQVPDVWLWGLFRHPVAHTWYRGHAAILGDAAHPTLPFLAQGANMALEDAWVLAECLARHSNIKGGLADYQARRVPRCCRVVQAANNNAWAYHLRSPIREIAHLGLRLGSRLLPGPTLRRFDWLYGYDVTAASLEHHHHHH”, which “soluble on expression in E. coli” value is on record?
The value was “soluble”.

For “VAVNNISNLINSRIRLTGISSGLDTDAIIEQLMSVERAKVDKIKQEKQILEWKRDIYRDIINKLRSITDEYFNVLKPKTNFTSQSAFTSFKISSSNESVVTVTANASAASKVHSITVHSLASAAKIVGTSGLVDGIKGSNAVNTLSLQGKEINVTLDGVTKTIALEDYTSLSDLETKLESALAKAFGTGKIDVVTTGGSIEFKCLLNGSTLSISDTANNYISSLGFSNGQKNFITGNSDVNSDFSLYTDGSFKITVGNGTAQTINISDATSIDDLVAKIQQAIDSNSELSGKVHVSNDGSKLTFISVSGETVKLTSGDSNNVLDKLGFSDGATITATSSTVIDLSGNEKGKTFIININGVDKIIEIDKDYNDLDELASYIQNQLGGTVNVTKDASGSRLVFSTGGADRLIFKKGPEDGLEKLGFTANDNRSNRISLTTKLDSLSTIFKNDLNIADPDANVVFTINGQTIDVGKTYANATLSDVMNAINSSSAGVKITYDSLNDRFIMESKTMGATSEIELTDTDPANGLLKAMGLIGGTYTAGTDAEFDLDGVTGMKRSTNEFTIEGVTYSLKGVSSEPVKIDVKADIDAVVENIKNFVNSYNEMLAKINSVLTEERYRDYLPLTDDQKKAMSEDDIKLWEQKAKSGLLRSDSILENIVTNLRRALYDKVEGCSLSLYQIGITTGSYQDKGKLVIDEEKLRAALTDNYDAVVQLFTQGSQYTYSEALNDPNKRAVRYKEAGIAQRIYDILQDNIRITRNANGKKGILLEKAGIAGDLTEYDNLIVNEIKAKETLIDEMLVKIYKKEEYYYSKFAAMEKMLDAMNSQSMWLTQQFSNYY”, which “soluble on expression in E. coli” value is on record?
Its value is “soluble”.

For “MGMIIMVGDGMGPAYTSAYRYFQDNPDTEEIEQTVFDRLLVGMASTYPARESGYVTDSAASATALATGFKSYNGAIAVDINKRPLTTIMQMAKARGMSTGVAVTAQVNHATPAAFLTHNESRKNYEAIAADMLKSDADVILGGGRKYFSEALVSQFSAKGYQHITELAQLDSITQPKVLGLFAEVQLPWVIDDTDANTLSKLTQKSLDLLSQNEKGFVLLVEGSLIDWAGHNNDIATAMAEMQGFANAIEVVEQYIRQHPDTLLVVTADHNTGGLSIGANGEYQWDTKLPKGISASPASIATHAIAADDWQAGVNQQLGFDVNSTELQQLTNARMQGKSTLEVALKKIIDTRSYTGWTTSGHTGVDVQVFAMGPAADLFKGNQDNTHIAEKMMSLLPKVN”, which “soluble on expression in E. coli” value is on record?
Its value is “soluble”.

With “MSLFHFVIKGTGFSSKNLQEIKVYEETLFCIDEAGVIQEIIEPDAEAYETVLAEQKEAQRFQELPQDSYLLPGFVDLHVHAPQWAQSGTALDIPLYEWLNTYTFPLESKFADLAFAQQVYDELVTQLLANGTTTALYFATIHYEASRRLAEICAEKGQRGLIGKVVMDDLNENPEYYRDQTTQQALEETERFIQEIQTLAQQTKQGVYPVVTPRFIPSCTEEALKGLGELAAKYQVHVQSHCSESDWEHQFVQERFEKNDAQALNDFGLLTEKAVMAHAGFLEEADMNLFHETGTAVAHCPISNAYFGNAVTPIAKLVHQHQVEVGLGSDLSGGFSPSLFDNLKQAVISSRMLEDGVDATKKPEVRGVKTARITVNEAFYLATAGGGQALSLPIGKLEKGYAWDVQIINTSLSQARIPKNPGESLLDIFQKILYLARPENIREVWVQGEKVHDKNLMSATKGVEGHHHHHH” as the sequence, how does the “soluble on expression in E. coli” value read?
The value was “soluble”.

Which “soluble on expression in E. coli” value does the source give for “MMVYIMNAFDIKSTKMDVLSISLHTSDLFDLEDVLVKLGKKFQESGVVPFVLDVQEFDYPESLDLAALVSLFSRHGMQILGLKHSNERWAAAAMKYHLLFCLSHSENVKELGQVEVQKTEDGQKARKTVLITSPVRTGQQVYAEDGDLIVTGAVSQGAELIADGNIHIYAPMRGRALAGAKGDTSARIFIHSMQAELVSVAGIYRNFEQDLPNHLHKQPVQILLQDNRLVISAIGSE” here?
The value was “not soluble”.

Which “soluble on expression in E. coli” value does the source give for “MRPDDKYHEKQAQVEATKLKQKVEALSPGDRQQIYEKGLELRSQQSKPQDASCLPALKVSDIEPTIPVTELDVVLTAGDIPVQYCAQPTNGMVYFRAFSSLNTLPEELRPYVPLFCSVLTKLGCGLLDYREQAQQIELKTGGMSASPHVLPDDSHMDTYEQGVLFSSLCLDRNLPDMMQLWSEIFNNPCFEEEEHFKVLVKMTAQELANGIPDSGHLYASIRAGRTLTPAGDLQETFSGMDQVRLMKRIAEMTDIKPILRKLPRIKKHLLNGDNMRCSVNATPQQMPQTEKAVEDFLRSIGRSKKERRPVRPHTVEKPVPSSSGGDAHVPHGSQVIRKLVMEPTFKPWQMKTHFLMPFPVNYVGECIRTVPYTDPDHASLKILARLMTAKFLHTEIREKGGAYGGGAKLSHNGIFTLYSYRDPNTIETLQSFGKAVDWAKSGKFTQQDIDEAKLSVFSTVDAPVAPSDKGMDHFLYGLSDEMKQAHREQLFAVSHDKLLAVSDRYLGTGKSTHGLAILGPENPKIAKDPSWIIR” here?
The value was “not soluble”.

With “MDLFDTPLAPLQVLDDAEGGVRYWPQLLAPAVAQAAFAALRDGADWQRHQRTMYDRVVDVPRLLASYRLDAPLPPGLPLQLLLAAVQAQLPAPYNAVGLNLYRDGRDSVAMHHDKLHTLLAPHPIALLSLGTPRRMQLRAKQGATRAITLELAPGSLLAMSHASQLTHEHGIPKTTRALGERISVVFRVRPPARMAAGQHGPHWEALTQTDLEHHHHHH” as the sequence, how does the “soluble on expression in E. coli” value read?
The value was “soluble”.

Which “soluble on expression in E. coli” value does the source give for “MKKIVFLLLLCVACCMNAQEFHLIPKVGLNLANTTGEVDSKVRPGLNIGLGGDVMLTERFGIETGVYYSMQGSKYKGGGVSYTDKLDYINVPVYAKEFIYKGLYVFGGPQFSFNVNSENKSSSDYGTTVIGMNVIRKFDCGVGLGAGYQFERGLLISLNYNIGLINVNKSWASDSNPKANNSVVQLNVGWRFAL” here?
The value was “not soluble”.

With “GPGSMTKGGSSVAEDAQLRAADTFEEAQTLLDVMLKQFHTMERNRTDPFISKVVIAGELKEDSSRPFSQVFQELIDAATVKSRNPLSEQSCPPSPPSGIFLDYGTHFVGLFEAVDRYVAELLILMDAECKSTEEPIFSDVRVLYLNDDVVPLGGQYVCFVDKIPGVVAQSEKVDVPEDVIAEMVADDVRKLTKLLSLVLSEGVSKRKNFLDNARTSHPTLFPNTSSLKMYVKSDLFLTLDEYHRVFGKLPELVRDVEVNHPVDQPLKY” as the sequence, how does the “soluble on expression in E. coli” value read?
The value was “soluble”.

Which “soluble on expression in E. coli” value does the source give for “MGHHHHHHSHKGLIDEITKKNIQLKKEIQKLETELQEATKEFQIKEDIPETKMKFLSVETPENDSQLSNISCSFQVSSKVPYEIQKGQALITFEKEEVAQNVVSMSKHHVQIKDVNLEVTAKPVPLNSGVRFQVYVEVSKMKINVTEIPDTLREDQMRDKLELSFSKFRNGGGEVDRVDYDRQSGSAVITFVEIGVADKILKKKEYPLYINQTCHRVTVSPYTEIHLKKYQIFSGTSKRTVLLTGMEGIQMDEEIVEDLINIHFQRAKNGGGEVDVVKCSLGQPHIAYFEE” here?
Its value is “not soluble”.

For “MGHHHHHHSHMAFPPGALHPLPKRQALEKSNGTSAVFNPSVLHYQQALTSAQLQQHAAFIPTDNSEIISRNGMECQESALRITKHCYCTYYPVSSSIELPQTAC”, which “soluble on expression in E. coli” value is on record?
The value was “not soluble”.

For “MTLPPTSIADRIARAQPAFSRTQHRMAEYVLAHQFRVATMTIDEFAVAVGVSVATANRFARVLELPGYPQFRAELARGFESALEPVEKLRIELAHSASAAQVFAATLQEDIHNAQMTLQALDAGACERAVEAILNAERVFIIGFGTSGFLAGLLQRGLCMHLHAVESLAGPGGVSHAARQMSRMTSRDLVIALAFPRYLADTVTLANAAKLAGVPVLVLTDKPTSPLAPCATVALYAHMSRQLSSNAETAALGLIEALSAAVAHRAKNSIAAAAGVAQSVMPWLIHGEAGAGKR”, which “soluble on expression in E. coli” value is on record?
The value was “not soluble”.
